Legend:
[1] = molecular target: FAM-labeled integrin β3 peptide (human); experiment: fluorescence polarisation
[2] = molecular target: FITC-labeled integrin β2 peptide representing both the JM and the NPxY/F regions (human); experiment: fluorescence polarisation

Substance	fold increase in affinity over wild-type THD [1] [fold]	Kd [2] [µM]	Kd [1] [µM]
THD(D397K) (from UniProt P26039 1-405) (domain or fragment)	2		
THD(D397R) (from UniProt P26039 1-405) (domain or fragment)	2	> 100	
talin head protein THD405d (residues 1-405, lacking F1-loop) (from UniProt P26039 1-405) (domain or fragment)		31.9	4.4

Reference: article doi:10.1101/2024.05.28.596271
